Where a chain is given by its changes, count along the chain named. One block for each binder: values may come before it.
Assays:
cynomolgus IL-1 beta = target: T1, cynomolgus IL-1 beta (cynomolgus, UniProt P79182 117-268); assay: ELISA, IL-1 beta coated at 2 mcg/ml, DLX2295 at 0.1, 0.3 and 1.0 mcg/ml, Protein L-HRP
T1 construct: Bought recombinant protein; also called cymonolgus IL-1 beta
T1 sequence (looked up): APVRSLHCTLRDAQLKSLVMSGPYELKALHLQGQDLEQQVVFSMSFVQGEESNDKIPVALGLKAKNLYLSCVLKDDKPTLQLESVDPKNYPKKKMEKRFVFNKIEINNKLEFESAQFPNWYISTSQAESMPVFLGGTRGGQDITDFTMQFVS
Experimental: (§1) Binding to the recombinantly expressed IL-1 beta proteins of the following species was investigated: cynomolgus (Sino Biological Inc., USA, cat. no. 90010-CNAE), rhesus macaque (R&D Systems, USA, cat. no. 1318-RL/CF) and mouse IL-1 beta (BioLegend, cat. no. 575102). […] Briefly, proteins were coated at a concentration of 2 mcg/ml over night at 4° C. on Maxisorp 96-well microplates in PBS pH 7.2. […] The ELISAs were developed with BM Blue POD substrate (Roche Applied Science) and the absorbance was measured at 450 nm.

rhesus macaque IL-1 beta = target: T2, rhesus macaque IL-1 beta (rhesus macaque, UniProt P48090 117-269); assay: as above
T2 construct: Bought recombinant protein
T2 sequence (looked up): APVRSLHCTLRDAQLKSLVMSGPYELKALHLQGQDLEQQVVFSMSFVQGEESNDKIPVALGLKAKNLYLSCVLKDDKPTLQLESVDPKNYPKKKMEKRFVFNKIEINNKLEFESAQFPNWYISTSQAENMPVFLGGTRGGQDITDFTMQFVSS
Experimental: as §1

mouse IL-1 beta = target: T3, mouse IL-1 beta (mouse, UniProt P10749 118-269); assay: as above
T3 construct: Bought recombinant protein
T3 sequence (looked up): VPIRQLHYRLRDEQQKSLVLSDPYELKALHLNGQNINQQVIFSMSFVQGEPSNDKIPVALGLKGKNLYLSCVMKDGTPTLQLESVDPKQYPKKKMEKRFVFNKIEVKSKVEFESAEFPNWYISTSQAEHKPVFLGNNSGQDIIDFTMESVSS
Experimental: as §1

[1] = target: T4, recombinant human IL-1 beta (human, UniProt P01584 117-269, biotinylated in the ELISA of Example 2 (R&D systems, cat. no. NFLB0), sites not stated; unlabelled elsewhere); assay: cell-based or functional assay
[2] = target: T4, recombinant human IL-1 beta; assay: ELISA, rhIL-1 beta coated, scFv 10 to 3'000 ng/ml, Protein L-HRP
Experimental: A scFv of irrelevant specificity was used as a control. rhIL-1 beta (Peprotech, cat. no. 200-01B) was coated to NUNC 96-well Maxisorp immunoplates. After blocking scFvs were titrated from 10 to 3′000 ng/ml. Bound scFvs were detected by Protein L-HRP (Sigma-Aldrich, cat. no. P3226), and the ELISA was developed using BM Blue POD substrate (Roche Applied Science, cat. no. 11484281001). For quantification purposes, the absorption was measured at 450 nm using VersaMax microplate reader (Molecular Devices).

binding result (cynomolgus IL-1 beta): binds
binding result (rhesus macaque IL-1 beta): binds
binding result (mouse IL-1 beta): binds
IC50 of IL-1 beta-induced IL-6 release from human dermal fibroblasts [1]: 2 to 5 pM
B1: DLX2295 (scFv)
scFv: DIQMTQSPSTLSASVGDRVTITCRASQDISNYLSWYQQKPGKAPKLLIYYTSKLHSGVPSRFSGSGSGAEFTLTISSLQPEDFATYFCLQGKMLPWTFGQGTKLEIKRGGGGSGGGGSGGGGSGGGGSEVQLVESGGGSVQPGGSLRLSCAFSGFSLSTSGMGVGWIRQAPGKGLEWVSHIWWDGDESYNPSLKGRFTISKDTSRNTVYLQMNSLRAEDTASYFCARNRYDPPWFVDWGQGTTVTVSS
notes: also called anti-IL-1 beta scFv DLX2295

IC50 of IL-1 beta-induced IL-6 release from human dermal fibroblasts [1]: ~8 pM
B2: DLX2296 (scFv)
scFv: B1 scFv with S139L, S222V, T243L

IC50 of IL-1 beta-induced IL-6 release from human dermal fibroblasts [1]: ~100 pM
B3: DLX2260 (scFv)
scFv: EIVMTQSPSTLSASVGDRVIITCRASQDISNYLSWYQQKPGKAPKLLIYYTSKLHSGVPSRFSGSGSGAEFTLTISSLQPDDFATYYCLQGKMLPWTFGQGTKLTVLGGGGGSGGGGSGGGGSGGGGSEVQLVESGGGLVQPGGSLRLSCTASGFSLSTSGMGVGWVRQAPGKGLEWVGHIWWDGDESYNPSLKSRFTISRDTSKNTVYLQMNSLRAEDTAVYYCARNRYDPPWFVDWGQGTLVTVSS

binding result [2]: binds
B4: DLX2332 (scFv)
scFv: B3 scFv with D81E, Y87F, L139S, T151A, V222S, Y224F, L243T
notes: also called anti-IL-1 beta scFv DLX2332

From patent US20180258165A1 (CELL MEDICA SWITZERLAND, published 2018)
